Test [1] has as its target T1, EBV gp350, truncated construct comprising residues 1-470 of the wild-type protein, C-terminal polyhistidine … (Epstein-Barr virus, UniProt P03200 1-470).
T1 construct: range 1-470; Produced in Sf9 insect cells by baculovirus; The methods say truncated 1-470, yet the results and discussion call the titrated ligand 'full-length'; also called Epstein-Barr virus glycoprotein gp350/220; not shown: C-terminal polyhistidine tag
T1 sequence: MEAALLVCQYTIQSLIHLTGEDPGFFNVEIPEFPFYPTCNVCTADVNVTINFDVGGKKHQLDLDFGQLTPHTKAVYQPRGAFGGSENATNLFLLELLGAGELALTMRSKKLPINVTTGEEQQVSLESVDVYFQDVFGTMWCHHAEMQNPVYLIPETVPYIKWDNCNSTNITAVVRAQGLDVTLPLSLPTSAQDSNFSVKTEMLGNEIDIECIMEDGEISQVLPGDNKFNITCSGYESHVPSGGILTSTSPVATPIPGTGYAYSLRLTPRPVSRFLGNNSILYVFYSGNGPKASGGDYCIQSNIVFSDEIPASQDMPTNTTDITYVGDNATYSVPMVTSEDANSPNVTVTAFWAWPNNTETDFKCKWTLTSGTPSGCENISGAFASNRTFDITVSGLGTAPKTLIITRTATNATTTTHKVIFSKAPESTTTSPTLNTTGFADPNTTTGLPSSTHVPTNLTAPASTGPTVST
As to the kind of experiment: ITC, 20 °C, 1/3x PBS, single site binding model. (Isothermal titration calorimetry measures the heat released or taken up as one component is titrated into another.)

In test [2] the target is T2, Human C3d (human, UniProt P01024 996-1303, limits assumed).
T2 construct: domain: C3d; also called complement component 3 proteolytic fragment C3d
Description: ITC, 20 °C, 1/3x PBS, two site binding model (weak site).
Description: (§1) ITC experiments were carried out on a Microcal VP-ITC (GE Healthcare, Piscataway, N.J.) housed in the Biophysics Core facility on the UCDSOM campus. […] Data was analyzed using the software provided by the manufacturer (Origin, version 7.0 MicroCal) using either single site or two site binding models (55).

In test [3] the target is T2, Human C3d. As to the kind of experiment: ITC, 20 °C, 1/3x PBS, two site binding model (tight site).
Description: as §1
Test [4] concerns the target T1, EBV gp350, truncated construct …. As to the kind of experiment: NMR titration, upper limit from slow exchange (min. shift difference about 60 Hz, diffusion-limited on rate assumed).

This is an account of results in patent US20130190477A1 (REGENTS OF THE UNIVERSITY OF COLORADO, published 2013).

T2 sequence (P01024 996-1303 limits assumed): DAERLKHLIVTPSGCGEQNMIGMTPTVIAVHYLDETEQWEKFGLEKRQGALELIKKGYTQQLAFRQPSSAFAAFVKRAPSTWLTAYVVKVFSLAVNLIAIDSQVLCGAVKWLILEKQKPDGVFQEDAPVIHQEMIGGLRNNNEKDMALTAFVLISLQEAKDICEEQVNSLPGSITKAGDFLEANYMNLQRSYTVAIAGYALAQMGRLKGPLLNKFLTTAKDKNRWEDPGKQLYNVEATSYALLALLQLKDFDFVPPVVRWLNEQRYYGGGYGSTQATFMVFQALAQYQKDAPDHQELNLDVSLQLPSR

B1: Human CR2 SCR1-2 (short consensus repeat domains 1 and 2 of human complement receptor 2) (receptor)
chain: ISCGSPPPILNGRISYYSTPIAVGTVIRYSCSGTFRLIGEKSLLCITKDKVDGTWDKPAPKCEYFNKYSSCPEPIVPGGYKIRGSTPYRHGDSVTFACKTNFSMNGNKSVWCQANNMWGPTRLPTCVS
notes: The ITC paragraph says only 'CR2 SCR1-2', so it is not clear which preparation gave the ITC values; also called CR2/CD21 SCR1-2; SCR1-2 domains of CR2
For orientation: Kd means the constant that tells how readily two partners part at equilibrium. Regarding B1, the Kd is 14 nM in test [1], 160000 nM with Human C3d [2], 130 nM in the test with Human C3d [3] and not above 60000 nM in test [4].
